These results are taken from patent US9587002B2, “Sequence of nucleotides and peptides GSE 24.2 of dyskerin, which can induce telomerase activity, method for obtaining same, therapeutic compositions and applications thereof” (CONSEJO SUPERIOR DE INVESTIGACIONES CIENTIFICAS, priority 2005, dated 2017).

In the series the test system is 293T cells. The series can be described thus: Cell viability of 293T cell lines treated with cisplatin (crystal violet). It counts as cell-based, human. The conditions noted are these: 293T cells stably expressing the construct vs empty vector pLNCX; cisplatin 0-100 μg/ml, 72 hours. How it is done: FIG. 2.—Cell viability and activation of the JNK and p38 death pathways in 293T cell lines: pLNCX and 24.2, treated with cisplatin. A) Cell viability. After seeding the 293T cells: expressing the empty vector (pLNCX) and GSE 24.2 (24.2) in 24-well plates, they were incubated with concentrations between 0-100 μg/ml of cisplatin. The cell viability was measured by means of the crystal violet technique after 72 hours of exposure to the drug. The data represent the mean of two experiments performed in quadruplicate. B) Activation kinetics. Subsequently, the activation of JNK and p38 was studied using antibodies that specifically recognise the active forms. As a load control, the levels of JNK-1 were detected.
FIG. 4.—Viability of the 293T cell lines: pLNCX, 24.2, DSK5′ and DSK treated with cisplatin. The cell lines described above (pLNCX and 24.2), the DSK 5′ cell line, which expresses a fragment of dyskerin described in the preceding figure, and a fourth one that overexpresses the complete cDNA of dyskerin (DSK) have been used. The viability was analyzed as shown in FIG. 1 A. The data represent the mean of two experiments performed in quadruplicate. […]
Growth curves. […] The number of cells was determined by estimating the absorbance at 595 nm. […]

“Also recorded” adds a separate entry of the source.

B1: GSE 24.2: 165-pb cDNA fragment (nucleotides 268 to 433) of human dyskerin, SEQ ID NO1, encoding peptide SEQ ID NO2, expressed from pLNCX plasmid (nucleic acid, listed as Homo sapiens)
DNA: GGTTTCATTAATCTTGACAAGCCCTCTAACCCCTCTTCCCATGAGGTGGTAGCCTGGATTCGACGGATACTTCGGGTGGAGAAGACAGGGCACAGTGGTACTCTGGATCCCAAGGTGACTGGTTGTTTAATCGTGTGCATAGAACGAGCCACTCGCTTGGTGAAG
modifications: expressed from pLNCX plasmid; CDS (1)..(165) Sequence GSE 24.2
With B1, the “cell viability in response to cisplatin” value is reported as “greater viability in response to cisplatin; also recorded: survival capacity to cisplatin”.
